Among the data in patent publication US12746270 (dated 2026) are Kd values, retold here.

By Kd is commonly meant the concentration at which binding is half-saturated. Read a high Kd as lower affinity.

This assay has as its target human megalin (human). In words: SPR. For orientation: Surface plasmon resonance follows binding to a sensor surface in real time, without labels.

Chain of human megalin (human) (O00711 whole entry): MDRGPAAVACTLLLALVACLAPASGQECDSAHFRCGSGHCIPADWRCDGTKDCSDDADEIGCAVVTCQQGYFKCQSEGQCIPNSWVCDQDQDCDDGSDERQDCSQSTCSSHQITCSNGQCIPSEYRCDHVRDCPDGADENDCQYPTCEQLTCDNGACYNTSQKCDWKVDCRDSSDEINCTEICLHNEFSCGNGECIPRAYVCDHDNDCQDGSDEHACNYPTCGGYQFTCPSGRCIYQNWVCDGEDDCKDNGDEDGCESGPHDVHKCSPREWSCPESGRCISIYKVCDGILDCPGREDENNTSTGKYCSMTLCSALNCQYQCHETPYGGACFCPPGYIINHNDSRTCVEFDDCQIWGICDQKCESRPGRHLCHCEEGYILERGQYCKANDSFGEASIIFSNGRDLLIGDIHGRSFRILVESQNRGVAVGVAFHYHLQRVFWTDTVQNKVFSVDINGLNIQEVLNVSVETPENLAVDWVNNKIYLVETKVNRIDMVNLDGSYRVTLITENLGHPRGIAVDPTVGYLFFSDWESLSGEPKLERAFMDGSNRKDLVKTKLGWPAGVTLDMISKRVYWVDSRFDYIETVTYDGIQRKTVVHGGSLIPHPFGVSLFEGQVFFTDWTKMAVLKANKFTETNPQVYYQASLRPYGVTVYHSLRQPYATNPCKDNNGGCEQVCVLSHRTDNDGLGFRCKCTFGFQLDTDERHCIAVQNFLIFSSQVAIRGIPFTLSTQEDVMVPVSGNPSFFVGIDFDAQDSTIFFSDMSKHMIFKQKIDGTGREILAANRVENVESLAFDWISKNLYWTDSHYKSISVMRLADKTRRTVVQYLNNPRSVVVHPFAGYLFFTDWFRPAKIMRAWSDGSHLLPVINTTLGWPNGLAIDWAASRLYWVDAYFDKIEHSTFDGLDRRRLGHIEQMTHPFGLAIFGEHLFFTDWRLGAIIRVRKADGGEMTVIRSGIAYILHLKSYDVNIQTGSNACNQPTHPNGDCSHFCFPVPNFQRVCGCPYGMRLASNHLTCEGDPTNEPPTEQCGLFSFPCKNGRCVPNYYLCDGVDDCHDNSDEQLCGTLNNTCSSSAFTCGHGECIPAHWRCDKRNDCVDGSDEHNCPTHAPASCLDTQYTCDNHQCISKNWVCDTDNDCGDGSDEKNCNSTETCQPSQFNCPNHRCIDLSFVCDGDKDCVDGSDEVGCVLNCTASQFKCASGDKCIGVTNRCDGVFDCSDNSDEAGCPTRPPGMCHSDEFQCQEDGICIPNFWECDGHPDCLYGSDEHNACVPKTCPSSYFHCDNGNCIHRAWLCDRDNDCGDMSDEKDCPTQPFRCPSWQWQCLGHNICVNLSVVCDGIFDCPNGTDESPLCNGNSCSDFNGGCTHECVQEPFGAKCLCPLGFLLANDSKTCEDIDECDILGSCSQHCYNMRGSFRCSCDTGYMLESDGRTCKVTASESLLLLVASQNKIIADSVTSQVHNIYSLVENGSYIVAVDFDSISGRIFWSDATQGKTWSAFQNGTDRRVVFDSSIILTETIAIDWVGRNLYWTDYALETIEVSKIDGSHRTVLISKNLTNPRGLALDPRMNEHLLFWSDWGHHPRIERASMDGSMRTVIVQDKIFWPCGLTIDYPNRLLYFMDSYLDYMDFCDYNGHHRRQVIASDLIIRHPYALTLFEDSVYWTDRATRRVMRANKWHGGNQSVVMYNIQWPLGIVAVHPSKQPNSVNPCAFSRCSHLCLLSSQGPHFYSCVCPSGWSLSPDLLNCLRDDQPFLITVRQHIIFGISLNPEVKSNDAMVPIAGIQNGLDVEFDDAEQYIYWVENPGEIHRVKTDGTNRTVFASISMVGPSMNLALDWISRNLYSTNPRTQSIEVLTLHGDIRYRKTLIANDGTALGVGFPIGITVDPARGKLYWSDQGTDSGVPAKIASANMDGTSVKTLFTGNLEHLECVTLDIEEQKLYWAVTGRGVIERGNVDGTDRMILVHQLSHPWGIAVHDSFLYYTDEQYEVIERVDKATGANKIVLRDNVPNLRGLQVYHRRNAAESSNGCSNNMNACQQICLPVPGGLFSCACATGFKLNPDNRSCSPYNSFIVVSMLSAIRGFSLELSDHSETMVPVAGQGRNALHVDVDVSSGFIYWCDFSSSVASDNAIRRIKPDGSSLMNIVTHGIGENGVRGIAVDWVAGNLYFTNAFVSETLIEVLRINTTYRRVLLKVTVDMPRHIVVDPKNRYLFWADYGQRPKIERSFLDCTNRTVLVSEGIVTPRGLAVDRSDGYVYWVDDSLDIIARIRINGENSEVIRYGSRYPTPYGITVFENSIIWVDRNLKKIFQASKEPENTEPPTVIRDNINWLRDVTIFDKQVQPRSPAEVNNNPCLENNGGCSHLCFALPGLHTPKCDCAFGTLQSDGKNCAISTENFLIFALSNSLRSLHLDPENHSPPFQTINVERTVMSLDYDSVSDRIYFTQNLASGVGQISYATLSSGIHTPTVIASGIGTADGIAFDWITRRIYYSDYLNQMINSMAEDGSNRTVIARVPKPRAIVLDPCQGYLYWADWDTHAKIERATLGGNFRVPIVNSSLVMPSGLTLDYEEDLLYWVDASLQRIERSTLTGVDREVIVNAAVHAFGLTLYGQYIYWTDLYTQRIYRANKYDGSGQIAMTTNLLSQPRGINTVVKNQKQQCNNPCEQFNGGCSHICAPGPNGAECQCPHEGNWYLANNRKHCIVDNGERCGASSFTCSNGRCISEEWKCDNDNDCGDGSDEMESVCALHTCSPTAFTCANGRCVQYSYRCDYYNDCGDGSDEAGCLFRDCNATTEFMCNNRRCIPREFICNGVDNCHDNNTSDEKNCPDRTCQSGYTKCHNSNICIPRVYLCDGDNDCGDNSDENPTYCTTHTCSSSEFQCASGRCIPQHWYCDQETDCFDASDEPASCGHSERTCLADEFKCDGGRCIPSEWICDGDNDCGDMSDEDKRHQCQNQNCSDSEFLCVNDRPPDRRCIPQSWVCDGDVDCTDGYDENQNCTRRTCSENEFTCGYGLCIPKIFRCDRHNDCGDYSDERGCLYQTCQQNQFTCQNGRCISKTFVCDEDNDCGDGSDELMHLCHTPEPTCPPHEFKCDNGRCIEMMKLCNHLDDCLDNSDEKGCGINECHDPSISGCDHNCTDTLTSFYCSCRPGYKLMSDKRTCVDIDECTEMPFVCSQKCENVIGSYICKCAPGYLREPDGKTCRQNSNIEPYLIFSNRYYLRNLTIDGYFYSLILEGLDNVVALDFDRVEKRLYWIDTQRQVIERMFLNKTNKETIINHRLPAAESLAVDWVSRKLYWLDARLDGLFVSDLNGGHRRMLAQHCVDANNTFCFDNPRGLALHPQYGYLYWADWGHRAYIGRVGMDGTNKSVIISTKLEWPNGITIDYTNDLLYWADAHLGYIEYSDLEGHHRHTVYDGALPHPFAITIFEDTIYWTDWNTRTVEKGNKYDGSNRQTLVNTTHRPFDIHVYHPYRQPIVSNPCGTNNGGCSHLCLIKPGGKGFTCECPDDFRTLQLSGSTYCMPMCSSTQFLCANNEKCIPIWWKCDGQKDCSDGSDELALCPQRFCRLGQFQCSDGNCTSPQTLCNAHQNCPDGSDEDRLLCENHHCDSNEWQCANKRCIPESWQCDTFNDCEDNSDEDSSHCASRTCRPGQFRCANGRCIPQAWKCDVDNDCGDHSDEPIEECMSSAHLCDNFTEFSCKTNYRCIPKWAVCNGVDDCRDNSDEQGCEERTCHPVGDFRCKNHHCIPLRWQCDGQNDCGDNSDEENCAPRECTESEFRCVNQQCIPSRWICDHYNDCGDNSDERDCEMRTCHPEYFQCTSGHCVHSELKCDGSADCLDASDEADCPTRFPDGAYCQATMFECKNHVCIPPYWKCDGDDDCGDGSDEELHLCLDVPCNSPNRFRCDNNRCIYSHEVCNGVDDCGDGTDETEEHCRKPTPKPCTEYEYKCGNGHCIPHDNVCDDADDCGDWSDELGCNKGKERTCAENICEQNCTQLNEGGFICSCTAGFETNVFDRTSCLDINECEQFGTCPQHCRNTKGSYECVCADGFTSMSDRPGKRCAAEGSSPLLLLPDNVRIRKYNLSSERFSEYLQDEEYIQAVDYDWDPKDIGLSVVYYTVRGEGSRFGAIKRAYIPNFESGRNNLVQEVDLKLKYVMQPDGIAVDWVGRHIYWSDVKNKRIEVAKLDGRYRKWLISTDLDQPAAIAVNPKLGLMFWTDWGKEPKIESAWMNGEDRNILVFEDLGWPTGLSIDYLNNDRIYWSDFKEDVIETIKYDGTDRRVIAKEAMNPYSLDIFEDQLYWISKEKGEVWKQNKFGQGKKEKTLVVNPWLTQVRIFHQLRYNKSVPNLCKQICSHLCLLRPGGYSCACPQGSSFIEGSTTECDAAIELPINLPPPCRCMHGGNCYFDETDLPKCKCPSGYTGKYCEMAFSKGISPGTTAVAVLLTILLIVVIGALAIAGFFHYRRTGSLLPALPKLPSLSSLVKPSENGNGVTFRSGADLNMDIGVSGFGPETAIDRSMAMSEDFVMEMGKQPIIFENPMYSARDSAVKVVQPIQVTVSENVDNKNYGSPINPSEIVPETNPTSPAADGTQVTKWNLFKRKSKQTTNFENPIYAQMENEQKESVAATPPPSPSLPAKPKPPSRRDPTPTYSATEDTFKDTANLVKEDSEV

B1: WT human NGAL (ligand-free) (protein)
chain: QDSTSDLIPAPPLSKVPLQQNFQDNQFQGKWYVVGLAGNAILREDKDPQKMYATIYELKEDKSYNVTSVLFRKKKCDYWIRTFVPGCQPGEFTLGNIKSYPGLTSYLVRVVSTNYNQHAMVFFKKVSQNREYFKITLYGRTKELTSELKENFIRFSKSLGLPENHIVFPVPIDQCIDG
Consider B1, for which the equilibrium dissociation constant (Kd) was ~60 nM.
